Assay results from publication PMC2748308.

Legend:
Assay in all cases: purified protein
Conditions in all cases: 50 mM Hepes pH 8.0
purified protein [1] = substrate: CC(=O)N[C@@H](CC(C)C)C(=O)O
purified protein [2] = substrate: CC(=O)N[C@@H](Cc1ccc(O)cc1)C(=O)O
purified protein [3] = substrate: CC(=O)N[C@@H](Cc1ccccc1)C(=O)O
purified protein [4] = substrate: CC(C)C[C@H](NC(=O)[C@@H](N)CC(=O)O)C(=O)O
purified protein [5] = substrate: CC(C)C[C@H](NC(=O)[C@H](C)N)C(=O)O
purified protein [6] = substrate: CC(C)C[C@H](NC=O)C(=O)O
purified protein [7] = substrate: CC(C)[C@H](NC=O)C(=O)O
purified protein [8] = substrate: CC[C@H](C)[C@H](NC(C)=O)C(=O)O
purified protein [9] = substrate: CC[C@H](C)[C@H](NC=O)C(=O)O
purified protein [10] = substrate: CSCC[C@H](NC=O)C(=O)O
purified protein [11] = substrate: C[C@H](N)C(=O)N[C@@H](Cc1ccccc1)C(=O)O
purified protein [12] = substrate: O=CN[C@@H](Cc1ccc(O)cc1)C(=O)O
purified protein [13] = substrate: O=CN[C@@H](Cc1ccccc1)C(=O)O

B1: Cc0300 (Caulobacter vibrioides CB15) (protein)
chain: QATFVQAGRLLADPATGKVEIAKTLVLENGKVTRILDGYVAEPGGKVVDLKDSFVLPGLIDSHVHLTGQQNPNGRLQAVTQSPSDSAMVGAGFARKTLMAGFTTVANLGANSQAIFALREGVKRGDVAGPRILASGSSISVHGGHGDINGYSEDVMHALRPESVCSGADDCRRAVREQIWLGADLIKITATGGVLSNTAAGLAKQFSDAELAAIVESAHSMGRKVTAHAHGGDGINAFLKAGGDSIEHGTYLDNEGIALMKKSGAYLVPTLMAGDFVYRIASGPNNYFTPAQTAKALEAGPKMLDMVRRAHADGVKVAFGTDSGVSAHGDNAGEFALLVKAGMTPLEAIQTATVNAADHFSLSNEIGSLTPGKAADLIAVKGDPLKDVTELQRVTSVIKGGVVYK
Km (purified protein [1]): 0.15 ± 0.03 mM | kcat (purified protein [1]): 2.5 ± 0.1 s⁻¹ | kcat/Km (purified protein [1]): 16000 ± 3000 M⁻¹ s⁻¹ | Km (purified protein [2]): 0.17 ± 0.02 mM | kcat (purified protein [2]): 4.6 ± 0.2 s⁻¹ | kcat/Km (purified protein [2]): 27000 ± 3000 M⁻¹ s⁻¹ | Km (purified protein [3]): 0.31 ± 0.03 mM | kcat (purified protein [3]): 5.3 ± 0.2 s⁻¹ | kcat/Km (purified protein [3]): 17000 ± 2000 M⁻¹ s⁻¹ | Km (purified protein [4]): 0.22 ± 0.04 mM | kcat (purified protein [4]): 29 ± 1 s⁻¹ | kcat/Km (purified protein [4]): 130000 ± 20000 M⁻¹ s⁻¹ | Km (purified protein [5]): 0.35 ± 0.04 mM | kcat (purified protein [5]): 37 ± 2 s⁻¹ | kcat/Km (purified protein [5]): 110000 ± 10000 M⁻¹ s⁻¹ | Km (purified protein [6]): 0.13 ± 0.01 mM | kcat (purified protein [6]): 39 ± 2 s⁻¹ | kcat/Km (purified protein [6]): 300000 ± 30000 M⁻¹ s⁻¹ | Km (purified protein [7]): 0.08 ± 0.01 mM | kcat (purified protein [7]): 18 ± 1 s⁻¹ | kcat/Km (purified protein [7]): 220000 ± 30000 M⁻¹ s⁻¹ | Km (purified protein [8]): 0.14 ± 0.02 mM | kcat (purified protein [8]): 2.6 ± 0.1 s⁻¹ | kcat/Km (purified protein [8]): 19000 ± 2000 M⁻¹ s⁻¹ | Km (purified protein [9]): 0.07 ± 0.01 mM | kcat (purified protein [9]): 20 ± 1 s⁻¹ | kcat/Km (purified protein [9]): 290000 ± 40000 M⁻¹ s⁻¹ | Km (purified protein [10]): 0.41 ± 0.03 mM | kcat (purified protein [10]): 12 ± 1 s⁻¹ | kcat/Km (purified protein [10]): 29000 ± 2000 M⁻¹ s⁻¹ | Km (purified protein [11]): 0.66 ± 0.05 mM | kcat (purified protein [11]): 19 ± 1 s⁻¹ | kcat/Km (purified protein [11]): 29000 ± 3000 M⁻¹ s⁻¹ | Km (purified protein [12]): 0.09 ± 0.01 mM | kcat (purified protein [12]): 33 ± 1 s⁻¹ | kcat/Km (purified protein [12]): 390000 ± 40000 M⁻¹ s⁻¹ | Km (purified protein [13]): 0.26 ± 0.03 mM | kcat (purified protein [13]): 52 ± 2 s⁻¹ | kcat/Km (purified protein [13]): 200000 ± 20000 M⁻¹ s⁻¹

B2: Sgx9355e (Alteromonas macleodii) (protein)
chain: MSLDVDSKTLIHAGKLIDGKSDQVQSRISIVIDGNIISDIKKGFISSNDFEDYIDLRDHTVLPGLMDMHVHFGQEYQSKAQAPIKVEREMQAILATQHAYVTFKSGFTTVRQVGDSGLVAISLRDAINSGKLAGPRIFAAGKTIATTGGHADPTNGKAVDDYDYPVPEQGVVNGPYEVYAAVRQRYKDGADGIKITVTGGVLSVAKSGQNPQFTQEEVDAVVSAAKDYGMWVAVHAHGAEGMKRAIKAGVDSIEHGTFMDLEAMDLMIENGTYYVPTISAGEFVAEKSKIDNFFPEIVRPKAASVGPQISDTFRKAYEKGVKIAFGTDAGVQKHGTNWKEFVYMVENGMPAMKAIQSATMETAKLLRIEDKLGSIESGKLADLIAVKGNPIEDISVLENVDVVIKDGLLYE
Km (purified protein [1]): 0.11 ± 0.01 mM | kcat (purified protein [1]): 0.032 ± 0.01 s⁻¹ | Km (purified protein [5]): 0.25 ± 0.03 mM | kcat (purified protein [5]): 0.34 ± 0.01 s⁻¹ | kcat/Km (purified protein [5]): 1300 ± 200 M⁻¹ s⁻¹ | Km (purified protein [6]): 0.26 ± 0.04 mM | kcat (purified protein [6]): 0.072 ± 0.003 s⁻¹ | kcat/Km (purified protein [6]): 280 ± 40 M⁻¹ s⁻¹ | Km (purified protein [11]): 0.07 ± 0.01 mM | kcat (purified protein [11]): 0.41 ± 0.01 s⁻¹ | kcat/Km (purified protein [11]): 5800 ± 600 M⁻¹ s⁻¹
